Laboratory results reported in patent US20220048967A1 (published 2022).
Numbered stars: 1 amine (or outer) side, 2 acyl side, 3 side chain; on linkers, the order of the positions; unused ones are H or OH. Square brackets hold non-standard residues; d marks the D form. Side chains are listed from the residue outwards. Ends that are not written are not given here. * marks the point of attachment. C20 diacid = O=C(O)CCCCCCCCCCCCCCCCCCC(=O)*; γGlu = O=C(O)[C@H](CCC(=O)[*:2])N[*:1]; AEEA = NCCOCCOCC(=O)O; Aib = CC(C)(N)C(=O)O

T1: human GIP receptor (human, UniProt P48546 22-466)
T1 sequence (looked up): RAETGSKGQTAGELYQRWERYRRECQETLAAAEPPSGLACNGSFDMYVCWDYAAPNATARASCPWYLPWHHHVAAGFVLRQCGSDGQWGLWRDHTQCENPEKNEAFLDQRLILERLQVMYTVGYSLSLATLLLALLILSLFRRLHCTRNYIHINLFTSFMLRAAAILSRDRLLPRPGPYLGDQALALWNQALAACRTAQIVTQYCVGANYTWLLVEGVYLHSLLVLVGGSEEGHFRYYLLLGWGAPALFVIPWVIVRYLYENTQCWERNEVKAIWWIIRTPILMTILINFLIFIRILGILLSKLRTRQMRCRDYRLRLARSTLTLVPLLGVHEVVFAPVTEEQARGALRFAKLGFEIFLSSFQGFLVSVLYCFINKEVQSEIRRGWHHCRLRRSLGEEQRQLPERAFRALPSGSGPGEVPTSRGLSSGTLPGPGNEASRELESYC


How the values were obtained:
human GIP receptor = target: T1, human GIP receptor; test: cell-based or functional assay
human GLP-1 receptor = human GLP-1 receptor (human, UniProt P43220 24-463); test: cell-based or functional assay

Binder	hGIPR cAMP EC50 ratio (human GIP receptor)	hGIPR cAMP Rel EC50 (human GIP receptor)	hGLP1R cAMP EC50 ratio (human GLP-1 receptor)	hGLP1R cAMP Rel EC50 (human GLP-1 receptor)
Y[Aib]EGTFTSDYSILLDKIAK([AEEA-AEEA-γGlu-C20 diacid])[Aib]AFIEYLIEGGPSSGAPPPS-NH2 (N-terminus assumed; SMILES CC[C@H](C)[C@H](NC(=O)[C@H](CCCCN)NC(=O)[C@H](CC(=O)O)NC(=O)[C@H](CC(C)C)NC(=O)[C@H](CC(C)C)NC(=O)[C@@H](NC(=O)[C@H](CO)NC(=O)[C@H](Cc1ccc(O)cc1)NC(=O)[C@H](CC(=O)O)NC(=O)[C@H](CO)NC(=O)[C@@H](NC(=O)[C@H](Cc1ccccc1)NC(=O)[C@@H](NC(=O)CNC(=O)[C@H](CCC(=O)O)NC(=O)C(C)(C)NC(=O)[C@@H](N)Cc1ccc(O)cc1)[C@@H](C)O)[C@@H](C)O)[C@@H](C)CC)C(=O)N[C@@H](C)C(=O)N[C@@H](CCCCNC(=O)COCCOCCNC(=O)COCCOCCNC(=O)CC[C@H](NC(=O)CCCCCCCCCCCCCCCCCCC(=O)O)C(=O)O)C(=O)NC(C)(C)C(=O)N[C@@H](C)C(=O)N[C@@H](Cc1ccccc1)C(=O)N[C@H](C(=O)N[C@@H](CCC(=O)O)C(=O)N[C@@H](Cc1ccc(O)cc1)C(=O)N[C@@H](CC(C)C)C(=O)N[C@H](C(=O)N[C@@H](CCC(=O)O)C(=O)NCC(=O)NCC(=O)N1CCC[C@H]1C(=O)N[C@@H](CO)C(=O)N[C@@H](CO)C(=O)NCC(=O)N[C@@H](C)C(=O)N1CCC[C@H]1C(=O)N1CCC[C@H]1C(=O)N1CCC[C@H]1C(=O)N[C@@H](CO)C(N)=O)[C@@H](C)CC)[C@@H](C)CC) [Example 31]	0.456	388 pM	0.0708	891 pM
Y[Aib]EGTFTSDYSILLDKIK([AEEA-AEEA-γGlu-C20 diacid])Q[Aib]AFIEYLIEGGPSSGAPPPS-NH2 (N-terminus assumed; SMILES CC[C@H](C)[C@H](NC(=O)[C@H](CC(C)C)NC(=O)[C@H](Cc1ccc(O)cc1)NC(=O)[C@H](CCC(=O)O)NC(=O)[C@@H](NC(=O)[C@H](Cc1ccccc1)NC(=O)[C@H](C)NC(=O)C(C)(C)NC(=O)[C@H](CCC(N)=O)NC(=O)[C@H](CCCCNC(=O)COCCOCCNC(=O)COCCOCCNC(=O)CC[C@H](NC(=O)CCCCCCCCCCCCCCCCCCC(=O)O)C(=O)O)NC(=O)[C@@H](NC(=O)[C@H](CCCCN)NC(=O)[C@H](CC(=O)O)NC(=O)[C@H](CC(C)C)NC(=O)[C@H](CC(C)C)NC(=O)[C@@H](NC(=O)[C@H](CO)NC(=O)[C@H](Cc1ccc(O)cc1)NC(=O)[C@H](CC(=O)O)NC(=O)[C@H](CO)NC(=O)[C@@H](NC(=O)[C@H](Cc1ccccc1)NC(=O)[C@@H](NC(=O)CNC(=O)[C@H](CCC(=O)O)NC(=O)C(C)(C)NC(=O)[C@@H](N)Cc1ccc(O)cc1)[C@@H](C)O)[C@@H](C)O)[C@@H](C)CC)[C@@H](C)CC)[C@@H](C)CC)C(=O)N[C@@H](CCC(=O)O)C(=O)NCC(=O)NCC(=O)N1CCC[C@H]1C(=O)N[C@@H](CO)C(=O)N[C@@H](CO)C(=O)NCC(=O)N[C@@H](C)C(=O)N1CCC[C@H]1C(=O)N1CCC[C@H]1C(=O)N1CCC[C@H]1C(=O)N[C@@H](CO)C(N)=O) [Example 30]	1.5	114 pM	0.0331	1840 pM
Y[Aib]EGTFTSDYSILLDKIAQ[Aib]K([AEEA-AEEA-γGlu-C20 diacid])FIEYLIEGGPSSGAPPPS-NH2 (N-terminus assumed; SMILES CC[C@H](C)[C@H](NC(=O)[C@H](CCCCN)NC(=O)[C@H](CC(=O)O)NC(=O)[C@H](CC(C)C)NC(=O)[C@H](CC(C)C)NC(=O)[C@@H](NC(=O)[C@H](CO)NC(=O)[C@H](Cc1ccc(O)cc1)NC(=O)[C@H](CC(=O)O)NC(=O)[C@H](CO)NC(=O)[C@@H](NC(=O)[C@H](Cc1ccccc1)NC(=O)[C@@H](NC(=O)CNC(=O)[C@H](CCC(=O)O)NC(=O)C(C)(C)NC(=O)[C@@H](N)Cc1ccc(O)cc1)[C@@H](C)O)[C@@H](C)O)[C@@H](C)CC)C(=O)N[C@@H](C)C(=O)N[C@@H](CCC(N)=O)C(=O)NC(C)(C)C(=O)N[C@@H](CCCCNC(=O)COCCOCCNC(=O)COCCOCCNC(=O)CC[C@H](NC(=O)CCCCCCCCCCCCCCCCCCC(=O)O)C(=O)O)C(=O)N[C@@H](Cc1ccccc1)C(=O)N[C@H](C(=O)N[C@@H](CCC(=O)O)C(=O)N[C@@H](Cc1ccc(O)cc1)C(=O)N[C@@H](CC(C)C)C(=O)N[C@H](C(=O)N[C@@H](CCC(=O)O)C(=O)NCC(=O)NCC(=O)N1CCC[C@H]1C(=O)N[C@@H](CO)C(=O)N[C@@H](CO)C(=O)NCC(=O)N[C@@H](C)C(=O)N1CCC[C@H]1C(=O)N1CCC[C@H]1C(=O)N1CCC[C@H]1C(=O)N[C@@H](CO)C(N)=O)[C@@H](C)CC)[C@@H](C)CC) [Example 32]	0.84	179 pM	0.136	498 pM
Y[Aib]EGTFTSDYSILLDK([AEEA-AEEA-γGlu-C20 diacid])IAQ[Aib]AFIEYLIEGGPSSGAPPPS-NH2 (N-terminus assumed; SMILES CC[C@H](C)[C@H](NC(=O)[C@H](CCCCNC(=O)COCCOCCNC(=O)COCCOCCNC(=O)CC[C@H](NC(=O)CCCCCCCCCCCCCCCCCCC(=O)O)C(=O)O)NC(=O)[C@H](CC(=O)O)NC(=O)[C@H](CC(C)C)NC(=O)[C@H](CC(C)C)NC(=O)[C@@H](NC(=O)[C@H](CO)NC(=O)[C@H](Cc1ccc(O)cc1)NC(=O)[C@H](CC(=O)O)NC(=O)[C@H](CO)NC(=O)[C@@H](NC(=O)[C@H](Cc1ccccc1)NC(=O)[C@@H](NC(=O)CNC(=O)[C@H](CCC(=O)O)NC(=O)C(C)(C)NC(=O)[C@@H](N)Cc1ccc(O)cc1)[C@@H](C)O)[C@@H](C)O)[C@@H](C)CC)C(=O)N[C@@H](C)C(=O)N[C@@H](CCC(N)=O)C(=O)NC(C)(C)C(=O)N[C@@H](C)C(=O)N[C@@H](Cc1ccccc1)C(=O)N[C@H](C(=O)N[C@@H](CCC(=O)O)C(=O)N[C@@H](Cc1ccc(O)cc1)C(=O)N[C@@H](CC(C)C)C(=O)N[C@H](C(=O)N[C@@H](CCC(=O)O)C(=O)NCC(=O)NCC(=O)N1CCC[C@H]1C(=O)N[C@@H](CO)C(=O)N[C@@H](CO)C(=O)NCC(=O)N[C@@H](C)C(=O)N1CCC[C@H]1C(=O)N1CCC[C@H]1C(=O)N1CCC[C@H]1C(=O)N[C@@H](CO)C(N)=O)[C@@H](C)CC)[C@@H](C)CC) [Example 29]	0.536	320 pM	0.0671	999 pM
Y[Aib]EGTFTSDYSILLDKIAQ[Aib]AFIEYK([AEEA-AEEA-γGlu-C20 diacid])IEGGPSSGAPPPS-NH2 (N-terminus assumed; SMILES CC[C@H](C)[C@H](NC(=O)[C@H](CCCCN)NC(=O)[C@H](CC(=O)O)NC(=O)[C@H](CC(C)C)NC(=O)[C@H](CC(C)C)NC(=O)[C@@H](NC(=O)[C@H](CO)NC(=O)[C@H](Cc1ccc(O)cc1)NC(=O)[C@H](CC(=O)O)NC(=O)[C@H](CO)NC(=O)[C@@H](NC(=O)[C@H](Cc1ccccc1)NC(=O)[C@@H](NC(=O)CNC(=O)[C@H](CCC(=O)O)NC(=O)C(C)(C)NC(=O)[C@@H](N)Cc1ccc(O)cc1)[C@@H](C)O)[C@@H](C)O)[C@@H](C)CC)C(=O)N[C@@H](C)C(=O)N[C@@H](CCC(N)=O)C(=O)NC(C)(C)C(=O)N[C@@H](C)C(=O)N[C@@H](Cc1ccccc1)C(=O)N[C@H](C(=O)N[C@@H](CCC(=O)O)C(=O)N[C@@H](Cc1ccc(O)cc1)C(=O)N[C@@H](CCCCNC(=O)COCCOCCNC(=O)COCCOCCNC(=O)CC[C@H](NC(=O)CCCCCCCCCCCCCCCCCCC(=O)O)C(=O)O)C(=O)N[C@H](C(=O)N[C@@H](CCC(=O)O)C(=O)NCC(=O)NCC(=O)N1CCC[C@H]1C(=O)N[C@@H](CO)C(=O)N[C@@H](CO)C(=O)NCC(=O)N[C@@H](C)C(=O)N1CCC[C@H]1C(=O)N1CCC[C@H]1C(=O)N1CCC[C@H]1C(=O)N[C@@H](CO)C(N)=O)[C@@H](C)CC)[C@@H](C)CC) [Example 35]	1.58	90.5 pM	0.00728	8380 pM
Y[Aib]EGTFTSDYSILLDKIAQ[Aib]AFIKYLIEGGPSSGAPPPS-NH2 (not fully specified (residue 24)) [Example 34]	0.393	360 pM	0.0392	1560 pM
Y[Aib]EGTFTSDYSILLDKIAQ[Aib]AFK([AEEA-AEEA-γGlu-C20 diacid])EYLIEGGPSSGAPPPS-NH2 [Example 33]	0.00222	63300 pM	0.000256	251000 pM
